Data from PMC4430201 (Nature, 2014).

Target: the molecule itself
Test: crystal structure

B1: lantibiotic dehydratase NisB (enzyme, Lactococcus lactis)
chain: MIKSSFKAQPFLVRNTILCPNDKRSFTEYTQVIETVSKNKVFLEQLLLANPKLYDVMQKYNAGLLKKKRVKKLFESIYKYYKRSYLRSTPFGLFSETSIGVFSKSSQYKLMGKTTKGIRLDTQWLIRLVHKMEVDFSKKLSFTRNNANYKFGDRVFQVYTINSSELEEVNIKYTNVYQIISEFCENDYQKYEDICETVTLCYGDEYRELSEQYLGSLIVNHYLISNLQKDLLSDFSWNTFLTKVEAIDEDKKYIIPLKKVQKFIQEYSEIEIGEGIEKLKEIYQEMSQILENDNYIQIDLISDSEINFDVKQKQQLEHLAEFLGNTTKSVRRTYLDDYKDKFIEKYGVDQEVQITELFDSTFGIGAPYNYNHPRNDFYESEPSTLYYSEEEREKYLSMYVEAVKNHNVINLDDLESHYQKMDLEKKSELQGLELFLNLAKEYEKDIFILGDIVGNNNLGGASGRFSALSPELTSYHRTIVDSVERENENKEITSCEIVFLPENIRHANVMHTSIMRRKVLPFFTSTSHNEVLLTNIYIGIDEKEKFYARDISTQEVLKFYITSMYNKTLFSNELRFLYEISLDDKFGNLPWELIYRDFDYIPRLVFDEIVISPAKWKIWGRDVNSKMTIRELIQSKEIPKEFYIVNGDNKVYLSQKNPLDMEILESAIKKSSKRKDFIELQEYFEDENIINKGEKGRVADVVVPFIRTRALGNEGRAFIREKRVSVERREKLPFNEWLYLKLYISINRQNEFLLSYLPDIQKIVANLGGNLFFLRYTDPKPHIRLRIKCSDLFLAYGSILEILKRSRKNRIMSTFDISIYDQEVERYGGFDTLELSEAIFCADSKIIPNLLTLIKDTNNDWKVDDVSILVNYLYLKCFFQNDNKKILNFLNLVSTKKVKENVNEKIEHYLKLLKVNNLGDQIFYDKNFKELKHAIKNLFLKMIAQDFELQKVYSIIDSIIHVHNNRLIGIERDKEKLIYYTLQRLFVSEEYMK
modifications: methylated prior to crystallization (residues not stated)
Question: With B1 as the protein, how does the “stoichiometry N” value read?
Answer: Its value is 2.
